Reference: publication PMC12329027 (Communications Chemistry, 2025)

Target: the molecule itself
Assay: cryo-EM structure

B1: full-length human αA-crystallin carrying the pathological mutation R116C (natural protein)
chain: MDVTIQHPWFKRTLGPFYPSRLFDQFFGEGLFEYDLLPFLSSTISPYYRQSLFRTVLDSGISEVRSDRDKFVIFLDVKHFSPEDLTVKVQDDFVEIHGKHNERQDDHGYISREFHCRYRLPSNVDQSALSCSLSADGMLTFCGPKIQTGLDATHAERAIPVSREEKPTSAPSS
Q: Does B1 bind?
A: binds
